What was measured:
RAW264.7 cells [1] = experiment: Uptake of cholesterol-modified Tetrapodna by cells; type: cell-based
Description: In order to examine applicability of nucleic acid having a modifying group, Tetrapodna using cholesterol-modified DNA was prepared. […] Furthermore, uptake of each Tetrapodna by RAW264.7 cells was measured.

[2] = tested on: atopic dermatitis model mouse; experiment: Application to atopic dermatitis model mouse; type: in vivo; details: vs Tetrapodna without cholesterol modification
[3] = Formation of hydrogel from nucleic acid units without ligase; type: physicochemical; details: without DNA ligase
Description: A NaCl solution was added to an ODN solution (polypodna) such that the final Na^+ concentration was 5 to 150 mM. The gel formation and the gel strength were measured by a gel strength analyzer (gel strength meter, Nakayamadenki Co., Ltd, Osaka).
A structure to be a hydrogel (a nucleic acid monomer and an estimated nucleic acid unit) in conditions at room temperature, at 5 mM to 150 mM sodium chloride concentration (150 mM is substantially physiological concentration), and not containing a DNA ligase was elucidated. […] For convenience, nucleic acid units estimated to be formed according to the number of nucleic acid monomers capable of constituting the nucleic acid unit were represented by xxxpodna (xxxpod-like structure forming nucleic acid, xxx is substituted by tri (3), tetra (4) and the like, according to the number of nucleic acid monomers capable of constituting the nucleic acid unit). In Table 2 described below, xxxpodna is an estimated nucleic acid unit, and each of xxx-Y-N is a nucleic acid monomer that can be a constituent element of the nucleic acid unit (xxxpodna) which is mentioned above thereof. When the descriptions of Ys are different from each other, different nucleic acid units can be formed. N denotes numbering of nucleic acid monomers constituting each of the estimated nucleic acid units.
Unlike (1-1) described above, gelation can be controlled by using a nucleic acid monomer including cohesive protruding ends which are not attached to themselves (that is, not palindrome sequence).

[4] = Percentage of remaining gels with the passage of time; type: physicochemical; details: DNA 0.5 mM
Description: Gels were formed by adjusting the NaCl concentration at 150 mM in an aqueous solution containing Tetrapodna (12-14-14) (SEQ ID NOs.: 30, 31, 32 and 33) at a DNA concentration of 0.1 mM, 0.25 mM or 0.5 mM, and the percentage of the remaining gels was measured with the passage of time. The results are shown in a graph in the left upper side of FIG. 17.
Gels were formed in conditions at a certain DNA concentration (0.5 mM) and a certain NaCl concentration (150 mM), and the percentage of the remaining gels was measured with the passage of time by using Tetrapodna (respectively, SEQ ID NOs.: 2, 4, 5 and 6, SEQ ID NOs.: 18, 19, 20 and 21, SEQ ID NOs.: 22, 23, 24 and 25, SEQ ID NOs.: 26, 27, 28 and 29, as well as SEQ ID NOs.: 30, 31, 32 and 33) having various lengths of the cohesive protruding end (4, 6, 8, 10 or 12 bases). The results are shown in a graph in the left lower side of FIG. 17. […] When 12 hours had passed, the percentage of the remaining gels became about 50%.
Gels were formed by variously changing the NaCl concentrations (5 mM, 50 mM, 100 mM or 150 mM) of an aqueous solution containing Tetrapodna (12-14-14) (SEQ ID NOs.: 30, 31, 32 and 33) at a DNA concentration of 0.5 mM, and the percentage of the remaining gels was measured with the passage of time. The results are shown in a graph in the right upper side of FIG. 17. […] At a low salt concentration (5 mM), almost all the formed gels became in a sol state when about 6 hours had passed. When the salt concentration was increased to 50 mM, solation tendency was weakened, a change from a gel into a sol occurred moderately (about 40% when 12 hours had passed).
The percentage of the remaining gels was measured with the passage of time in the same manner as in (8-3) except that Tetrapodna (4-18-18) (SEQ ID NOs.: 2, 4, 5 and 6) was used instead of Tetrapodna (12-14-14) (SEQ ID NOs.: 30, 31, 32 and 33). The results are shown in a graph in the right lower side of FIG. 17. […] In (8-3), Tetrapodna (12-14-14) (the length of the cohesive protruding end is 12 bases) was used. In (8-4), Tetrapodna (4-18-18) (the length of the cohesive protruding end is 4 bases) was used.

splenocytes = experiment: IFN-γ production by splenocytes after immunization with OVA in gel; type: in vivo, mouse; details: 100 μg OVA + 100 μg DNA, spleen on Day 14, vs only OVA
[5] = Evaluation of gelation at various DNA concentrations and NaCl concentrations; type: physicochemical; set-up: key: ◯: the mark “∘” is given to cases in which gelation was observed; X: the mark “x” is given to cases of a solution state (sol-state)
Description: […] The gel formation and the gel strength were measured by a gel strength analyzer (gel strength meter, Nakayamadenki Co., Ltd, Osaka).
Specifically, by changing the DNA concentrations of an aqueous solution of Tripodona (4-18-18) (X=4) (SEQ ID NOs.: 1, 2 and 3), Tetrapodna (4-18-18) (X=4) (SEQ ID NOs.: 2, 4, 5 and 6), Hexapodna (4-18-18) (X=4) (SEQ ID NOs.: 2, 3, 4, 7, 9 and 10) and Tetrapodna (8-16-16) (X=8) (SEQ ID NOs.: 22, 23, 24 and 25) as shown in the lines of Table 4, and by changing the NaCl concentration as shown in the rows of Table 4, whether or not a gel is formed at various DNA concentrations and NaCl concentrations was evaluated. The results are shown such that the mark “∘” is given to cases in which gelation was observed, and the mark “x” is given to cases of a solution state (sol-state).

[6] = tested on: mouse dendritic cell DC2.4; experiment: Stimulation of dendritic cells by gel; type: cell-based; details: gel brought into contact with DC2.4
[7] = Temperature conditions for gel formation; type: physicochemical; details: NaCl 150 mM
Description: Furthermore, we investigated a possibility that temperature conditions are also involved in gelation. Tetrapodna (4-18-18) (SEQ ID NOs.: 2, 4, 5 and 6), Hexapodna (4-18-18) (SEQ ID NOs.: 2, 3, 4, 7, 9 and 10) and Tetrapodna (8-16-16) (SEQ ID NOs.: 22, 23, 24 and 25) were used to examine the temperature conditions for allowing a gel be present or a sol to be present by fixing the NaCl concentration at 150 mM and changing the DNA concentration variously.

[8] = Release of encapsulated OVA from gel; type: physicochemical; details: DNA 0.5 mM, OVA 2.5 μg/μl
Description: By controlling the nature and salt concentration of protruding ends of Tetrapodna, the change of the releasing rate of an encapsulated compound in a gel was examined. Specifically, Tetrapodna (4-18-18) (SEQ ID NOs.: 2, 4, 5 and 6) including a cohesive protruding end and Tetrapodna (4-18-18) (SEQ ID NOs.: 58, 59, 60 and 61) as a control including a non-cohesive protruding end were used. In an aqueous solution of Tetrapodna which had been prepared such that the DNA concentration was 0.5 mM, the NaCl concentration was adjusted to 5 mM or 150 mM. When the NaCl concentration was increased, egg albumin (OVA, concentration of 2.5 μg/μl) was added as an encapsulated substance to cause gelation, and then the percentage of OVA released from the gel with the passage of time was measured.

[9] = Gel formation in a living body after subcutaneous injection of sol; type: in vivo; details: total DNA 2 mM, NaCl 5 mM, back of mouse
Text: The hydrogel produced in Example 1 was able to be prepared in a sol state by appropriately adjusting conditions. Therefore, the hydrogel was able to be administered in a living body by injection. […] Thus, it was confirmed that a gel is formed in a living body only by preparing the hydrogel in accordance with the present invention in a sol state and administering the hydrogel to a living body.

[10] = Melting temperature (Tm) from melting curve, absorbance at 260 nm; type: physicochemical; details: sodium concentration of 5 mM
Description: Each DNA preparation was prepared in the same manner as in Example 1 by using the sequences in Table 1. The absorbance of polypodna or other DNA preparations at 260 nm was measured by using a Shimadzu UV-1600 PC spectrometer (Kyoto, Japan) equipped with a TMSPC-8 temperature controller 18. The melting temperature (Tm) was obtained from the melting curve at the sodium concentration of 5 mM in each preparation.

RAW264.7 cells [11] = experiment: Release of TNF-α from RAW264.7 cells (ELISA); type: cell-based, murine; details: 0.5, 1 or 2 μg/ml, 8 hours
Description: In a RPMI1640 medium to which 10% heat inactivated FBS, 0.15% sodium bicarbonate, 100 units/ml penicillin, […] streptomycin and 2 mML-glutamine were added, murine macrophage-like RAW264.7 cells were proliferated in humidified air containing 5% CO2 at 37° C. Subsequently, cells were seeded on a 24-well or 96-well culture plate at a density of 5×10^5 cells/well, and cultured for 24 hours before use.
The RAW264.7 cells were seeded on a 24-well plate at a density of 2.5×10^5 cells/well, and incubated for 24 hours before treatment. Then, ssDNA, dsDNA, or several kinds of polypodnas diluted in 0.5 ml of Opti-MEM were added to the cells at a final concentration of 0.5, 1 or 2 μg/ml. The cells were incubated for 8 hours, the supernatant was recovered and stored at −70° C. before use. The concentrations of TNF-α and IL-6 in the supernatant were measured by Enzyme-Linked Immunosorbent Assay (ELISA) using an OptEIA™ set (Pharmingen, San Diego, Calif., USA).
The same experiment as in Example 22 was carried out except that each poolypodna preparation was prepared in the same manner as in Example 1 by using the sequences in Table 1. However, the added DNA was equal amount in each case.

B1: Chol-CpG DNA: Tetrapodna (SEQ ID NOs.: 2, 4, 5 and 6) which contains a cholesterol-modified nucleic acid monomer and a CpG motif (conjugate)
DNA 1: ACGTTCGACAGCGTCAACGTGAAACGTGAAGCGTCTGCGA
DNA 2: ACGTTCGCTGACGTTGCAGACATCACGTTGACGCTGTCGA
DNA 3: ACGTTCGCAGACGCTTCACGTTGCAGACAGACGTTGACGA
DNA 4: ACGTTCGTCAACGTCTGTCTGCTGTCTGCAACGTCAGCGA
modifications: DNA, phosphodiester; one monomer cholesterol-modified, strand and position not given here
uptake by RAW264.7 cells (RAW264.7 cells [1]): incorporated into RAW264.7 cells better than Tetrapodna as a control which does not have cholesterol modification | tissue transferability ([2]; applied to skin): increased | skin inflammation [2]: better suppressed

B2: Tetrapodna(4-18-18): four ODNs, SEQ ID NOs.: 2, 4, 5 and 6, 4-base cohesive protruding end, contains CpG motif (nucleic acid)
DNA 1: ACGTTCGACAGCGTCAACGTGAAACGTGAAGCGTCTGCGA
DNA 2: ACGTTCGCTGACGTTGCAGACATCACGTTGACGCTGTCGA
DNA 3: ACGTTCGCAGACGCTTCACGTTGCAGACAGACGTTGACGA
DNA 4: ACGTTCGTCAACGTCTGTCTGCTGTCTGCAACGTCAGCGA
modifications: unmodified DNA
gel formation [3]: gels can be prepared | percentage of the remaining gels with the passage of time ([4]; NaCl 150 mM): a gel became a sol with the passage of time | percentage of the remaining gels ([4]; NaCl 150 mM, 12 hours): about 50% | percentage of the remaining gels, dependence on salt concentration ([4]; NaCl 5, 50, 100 or 150 mM): as the salt concentration is higher, it tends to be present not in a sol but in a gel | production of IFN-γ by splenocytes stimulated with OVA (splenocytes): remarkable increase in production amount of IFN-γ | gelation ([5]; Na+ 2 mM, DNA 0.8 mM): ◯ | gelation ([5]; Na+ 20 mM, DNA 0.6 mM): X | gelation ([5]; Na+ 20 mM, DNA 0.7 mM): X | gelation ([5]; Na+ 50 mM, DNA 0.6 mM): ◯ | gelation ([5]; Na+ 50 mM, DNA 0.7 mM): ◯ | gelation ([5]; Na+ 100 mM, DNA 0.5 mM): X | gelation ([5]; Na+ 150 mM, DNA 0.4 mM): X | gelation ([5]; Na+ 150 mM, DNA 0.5 mM): ◯ | immunological stimulation of dendritic cell [6]: significantly immunologically stimulated a mouse dendritic cell | temperature at which gel is present ([7]; DNA concentration 0.4-0.5 mM): gel at 45 °C | temperature at which sol is present ([7]; DNA concentration 0.4-0.5 mM): sol at 55 °C | temperature at which gel is present ([7]; DNA concentration 0.6-0.8 mM): gel at 55 °C | temperature at which sol is present ([7]; DNA concentration 0.6-0.8 mM): sol at 65 °C | release of OVA from the gel ([8]; NaCl 5 mM): all OVA was released for a short time | percentage of OVA released ([8]; NaCl 150 mM, 24 hours): about 60% | gel formation in a living body [9]: gelation occurred in a living body after administration

B3: dsDNA36: double strand of dsDNA36-1 and dsDNA36-2, SEQ ID Nos. 108 and 109 (nucleic acid)
chain 1: TCGCTGACGTTGCAGACATCACGTTGACGCTGTCGA
chain 2: TCGACAGCGTCAACGTGATGTCTGCAACGTCAGCGA
modifications: unmodified DNA
Tm [10]: 66.5 °C | TNF-α release (RAW264.7 cells [11]): the TNF-α release hardly occurred
